Tests used:
[1] = biological target: M. tuberculosis OctT (Rv2418c) (Mycobacterium tuberculosis, UniProt P71725)
M. hassiacum OctT = M. hassiacum OctT (Mycolicibacterium hassiacum, UniProt K5BJH8); assay: CoA release with DTNB at […] nm; type: biochemical; settings: DGG 20 mM, Oct-CoA 80 μM; product inhibition; enzyme species not given, M. hassiacum inferred from the characterisation
purified protein [2] = substrate: CCCCCC(=O)SCCNC(=O)CCNC(=O)[C@H](O)C(C)(C)COP(=O)(O)OP(=O)(O)OC[C@H]1O[C@@H](n2cnc3c(N)ncnc32)[C@H](O)[C@@H]1OP(=O)(O)O; assay: purified protein; type: biochemical, Mycolicibacterium hassiacum; settings: apparent, DGG 20 mM, 50 mM BTP, 37 °C, substrate inhibition above 100 μM
purified protein [3] = substrate: CCCCCCCC(=O)SCCNC(=O)CCNC(=O)[C@H](O)C(C)(C)COP(=O)(O)OP(=O)(O)OC[C@H]1O[C@@H](n2cnc3c(N)ncnc32)[C@H](O)[C@@H]1OP(=O)(O)O; assay: purified protein; type: biochemical, Mycolicibacterium hassiacum; settings: apparent, DGG 20 mM, 50 mM BTP, 37 °C, substrate inhibition above 100 μM
purified protein [4] = substrate: O=C(O)[C@@H](CO)O[C@H]1O[C@H](CO)[C@@H](O)[C@H](O)[C@H]1O; assay: purified protein; type: biochemical, Mycolicibacterium hassiacum; settings: apparent, Oct-CoA 100 μM, 50 mM BTP, 37 °C
purified protein [5] = substrate: O=C(O)[C@@H](CO)O[C@H]1O[C@H](CO[C@H]2O[C@H](CO)[C@@H](O)[C@H](O)[C@H]2O)[C@@H](O)[C@H](O)[C@H]1O; assay: purified protein; type: biochemical, Mycolicibacterium hassiacum; settings: apparent, Oct-CoA 100 μM, 50 mM BTP, 37 °C
purified protein [6] = substrate: CCCCCCCC(=O)SCCNC(=O)CCNC(=O)[C@H](O)C(C)(C)COP(=O)(O)OP(=O)(O)OC[C@H]1O[C@@H](n2cnc3c(N)ncnc32)[C@H](O)[C@@H]1OP(=O)(O)O; assay: purified protein; type: biochemical, Mycolicibacterium smegmatis; settings: apparent, DGG 45 mM, 50 mM BTP, 37 °C, substrate inhibition above 100 μM
purified protein [7] = substrate: O=C(O)[C@@H](CO)O[C@H]1O[C@H](CO)[C@@H](O)[C@H](O)[C@H]1O; assay: purified protein; type: biochemical, Mycolicibacterium smegmatis; settings: apparent, Oct-CoA 100 μM, 50 mM BTP, 37 °C
purified protein [8] = substrate: O=C(O)[C@@H](CO)O[C@H]1O[C@H](CO[C@H]2O[C@H](CO)[C@@H](O)[C@H](O)[C@H]2O)[C@@H](O)[C@H](O)[C@H]1O; assay: purified protein; type: biochemical, Mycolicibacterium smegmatis; settings: apparent, Oct-CoA 100 μM, 50 mM BTP, 37 °C

Chain of M. tuberculosis OctT (Rv2418c) (P71725 whole entry): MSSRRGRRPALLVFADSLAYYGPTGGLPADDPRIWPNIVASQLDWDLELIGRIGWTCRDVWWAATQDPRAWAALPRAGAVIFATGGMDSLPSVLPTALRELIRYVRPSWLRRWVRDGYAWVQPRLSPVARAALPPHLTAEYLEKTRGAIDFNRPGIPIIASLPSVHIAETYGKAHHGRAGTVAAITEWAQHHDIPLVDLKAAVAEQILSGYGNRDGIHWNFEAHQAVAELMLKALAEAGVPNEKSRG

O=C(O)[C@@H](CO)O[C@H]1O[C@H](CO[C@H]2O[C@H](CO)[C@@H](O)[C@H](O)[C@H]2O)[C@@H](O)[C@H](O)[C@H]1O [DGG, (2R)-2-O-α-D-glucopyranosyl-(1→6)-α-D-glucopyranosyl-2,3-dihydroxypropanoate]
preparative conversion, TLC and NMR of product [1]: natural Oct-DGG produced by the M. tuberculosis, M. hassiacum and M. smegmatis recombinant OctT enzymes

CCCCCCCC(=O)OC[C@H]1O[C@H](OC[C@H]2O[C@H](O[C@H](CO)C(=O)O)[C@H](O)[C@@H](O)[C@@H]2O)[C@H](O)[C@@H](O)[C@@H]1O [compound 1]
% loss of activity at 400 μM (M. hassiacum OctT): 22%

B1: M. hassiacum OctT (Mycolicibacterium hassiacum DSM 44199) (protein)
chain: MSGRRPTLLVFCDSLSYYGPRGGLPADDPRIWPNIVASQLDWDVELIGRVGWTSRDVWWAATQDPRAWAALPRAGAVIFATGGMDSLPSPLPTALRELIRYIRPPWLRRRVRDLYGWLQPRLSPVSRNALPPHLTAEYLEMTRGAIDFNRPGIPVVAALPSVHIADSYGRAHHGREATARAITEWARQHGVVLVDLKAAVADQVLNGRGNPDGIHWNFEAHQAVAELMLKALAEAGVPCR
kcat/Km (purified protein [2]): 35 ± 10 M⁻¹ s⁻¹ | Km (purified protein [3]): 0.06 ± 0.01 mM | kcat/Km (purified protein [3]): 31.7 ± 6.67 M⁻¹ s⁻¹ | Km (purified protein [4]): 6.6 ± 0.78 mM | kcat/Km (purified protein [4]): 0.05 ± 0.00667 M⁻¹ s⁻¹ | Km (purified protein [5]): 9.5 ± 0.8 mM | kcat/Km (purified protein [5]): 0.167 M⁻¹ s⁻¹

B2: M. smegmatis OctT (Mycolicibacterium smegmatis MC2 155) (protein)
chain: MSSETSSESTGHRPVLLVFADSLSYFGPTGGLPADDPRIWPNIVGEQLGWDVELIGRIGWTCRDVWWAATQDPRSWAALPRAGAVVFATSGMDSLPSPLPTALREMIRYVRPPWLRRWVRDGYGWVQPRLSPIARSALPPHVTVEYLEMTRNAIDFNRPGIPVVASLPSVHIAETYGRAHHGREPTVRAITAWAEEHHVPLVDLKAAVADEVFGGRGNPDGIHWSFEAHRAVAELMLKGLAEAGVTQRDSAT
Km (purified protein [6]): 0.03 ± 0.01 mM | kcat/Km (purified protein [6]): 1430 ± 483 M⁻¹ s⁻¹ | Km (purified protein [7]): 19.0 ± 8.6 mM | Km (purified protein [8]): 20.0 ± 3.6 mM | kcat/Km (purified protein [8]): 1.83 ± 0.833 M⁻¹ s⁻¹
